Measurements as given in EP4606382A1 (Fundació Centre de Regulació Genòmica, dated 2025).

Molecular target: T1, NanoLuc-cTAGE5-CC2 (predicted binding region of cTAGE5 coiled-coil 2 with a Nanoluciferase tag at the …)
T1 construct: The fusion construct was expressed inside live HEK293T cells; also called C5-CC2; c5-CC2
T1 chain: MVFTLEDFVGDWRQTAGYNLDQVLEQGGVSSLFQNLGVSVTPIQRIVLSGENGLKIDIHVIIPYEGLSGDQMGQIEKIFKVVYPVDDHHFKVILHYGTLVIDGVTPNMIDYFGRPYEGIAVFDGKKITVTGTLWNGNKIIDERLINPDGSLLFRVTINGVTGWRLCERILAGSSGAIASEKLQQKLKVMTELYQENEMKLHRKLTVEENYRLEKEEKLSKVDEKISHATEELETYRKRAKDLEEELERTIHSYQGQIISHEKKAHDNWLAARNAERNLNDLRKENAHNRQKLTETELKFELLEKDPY
Assay: NanoBRET in live HEK293T cells (HaloTag 618 acceptor, NanoLuc donor)

B1: Halo-T1-CC2 (portion of the coiled-coil region CC2 of TANGO1 with an N-terminal fusion of HaloTag) (other)
chain: MAEIGTGFPFDPHYVEVLGERMHYVDVGPRDGTPVLFLHGNPTSSYVWRNIIPHVAPTHRCIAPDLIGMGKSDKPDLGYFFDDHVRFMDAFIEALGLEEVVLVIHDWGSALGFHWAKRNPERVKGIAFMEFIRPIPTWDEWPEFARETFQAFRTTDVGRKLIIDQNVFIEGTLPMGVVRPLTEVEMDHYREPFLNPVDREPLWRFPNELPIAGEPANIVALVEEYMDWLHQSPVPKLLFWGTPGVLIPPAEAARLAKSLPNCKAVDIGPGLNLLQEDNPDLIGSEIARWLSTLEISGEPTTEDLYFQSDNAIASELRQKVEILNELYQQKEMALQKKLSQEEYERQEREHRLSAADEKAVSAAEEVKTYKRRIEEMEDELQKTERSFKNQIATHEKKAHENWLKARAAERAIAEEKREAANLRHKLLELTQKMAMLQEEP
modifications: HaloTag labeled with the HaloTag 618 fluorescent ligand
notes: The fusion construct was expressed inside live HEK293T cells; also called Halo-TANGO1-CC2; TANGO1-CC2
binding result: binds
